Data from US20240209061A1, “FUSION PROTEINS AND USES THEREOF” (Pfizer Inc., priority 2020, published 2024).

Tests used:
[1] = Thermal forced aggregation (SEC); type: physicochemical; settings: 24 hours, PBS
Outline: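 CD80-Fc variants at 1 mg/ml in PBS were held for 24 h at increasing temperatures. Samples were analysed by diol-column SEC in PBS with 400 mM NaCl. % aggregation was calculated from the loss of intact peak area.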

[2] = Viscosity (Anton Paar rheometer); type: physicochemical; settings: 20 mM histidine, 8.5% sucrose, pH 5.8
Description: The viscosity of CD80-Fc fusion proteins was assessed at various concentrations. Lower viscosity is desired for subcutaneous administration, and providing optimal syringeability and minimal pain to patients. Viscosity was measured using an Anton Paar rheometer and a CP-25 measuring system at 150 rpm. The sample comprised CD80-Fc fusion proteins in 20 mM histidine and 8.5% sucrose at pH 5.8.

[3] = system: peripheral blood mononuclear cells (PBMC); test: RESTORE cytokine release assay in absence of TCR stimulation; type: cell-based, human; design: IFNγ: unit not given beside the values
Outline: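 Fresh healthy-donor PBMC were precultured 48 h at […] in RPMI1640 with 10% autologous plasma, then resuspended at 10^6/ml with soluble variant CD80-Fc. After 48 h without TCR stimulation, supernatant IL-2 and IFNγ were measured by ELISA; values are means of 3 technical replicates per donor.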

[4] = system: CT26 murine colorectal carcinoma tumor cells; test: CT26 murine colorectal carcinoma model; type: in vivo, mouse; settings: for Day 10 tumor volume: Days 0 and 3; for % tumor growth inhibition: Day 10; for # IFNγ-producing spots (tumor-reactive T cells in spleen): average of n = 4 mice
Description: CT26 murine colorectal carcinoma tumor cells (1×10^6) were subcutaneously implanted in the hind flank of female Balb/c mice. When tumors reached ˜100 mm3 (Day 8), mice were randomized. PBS vehicle control or variant CD80-Fc fusion proteins were dosed intravenously at 0.1 and 1.0 mg/kg on Days 0 and 3. Tumor volume was determined by caliper measurements obtained in 2 dimensions and calculated as width^2×length/2. Error bars are depicted as ±SEM.
IFNγ ELIspot was used to measure tumor-reactive T cells in the spleen in mice treated with CD80-Fc fusion proteins at a 1 mg/kg dose.
(§1) Cytotoxic CD8^+ T cells are responsible for killing cancer cells and the measurement of CD8^+ T cells that have infiltrated tumors commonly correlates with efficacy for immune-oncology therapies. For all in vivo studies, tumors were collected ˜1 week after the first dose and dissociated by mincing, followed by incubation in an enzymatic digestion cocktail and homogenization. The resulting cell suspension was filtered and washed, and single cells were stained with antibodies to CD45, CD8, and a viability dye to detect tumor-infiltrating lymphocytes (TILs) by flow cytometry. Data were acquired on a BD LSRFortessa flow cytometer or a Cytek Aurora spectral flow cytometer. Table 31 and FIG. 18 show the amount of tumor-infiltrating CD8+ T cells expressed as a percentage of total immune cells (CD45+). Each value is the average of n=4 mice per group. Treatment with all variant CD80-Fc fusion proteins led to increase in CD8+ TILs in various tumor models.

[5] = system: Renca murine renal carcinoma tumor cells; test: Renca murine renal carcinoma model; type: in vivo, mouse; settings: for % tumor growth inhibition: Day 18
Description: Renca murine renal carcinoma tumor cells (1 million) were subcutaneously implanted in the hind flank of female Balb/c mice. Five days after tumor implantation, PBS vehicle control or variant CD80-Fc fusion proteins were dosed intravenously at 0.3 and 1 mg/kg (on Day 0 and Day 3) or 3 mg/kg (Day 0, Day 3 and Day 6). Tumor volume was determined by caliper measurements obtained in 2 dimensions and calculated as width^2×length/2. Error bars are depicted as ±SEM.
Pharmacodynamic (PD) modulation with variant CD80-Fc fusion proteins was assessed by measuring tumor-reactive T cells in the spleen using IFNγ ELIspot. Single-cell suspensions were generated from dissociated spleens taken at Day 9 after the first dose of CD80-Fc. Splenocytes were incubated with irradiated tumor cells overnight at 37° C., and the number of IFNγ-producing spots were measured using the IFNγ ELIspot Kit (BD Biosciences #551083).
as §1

In the case of “CD80-K89Q-D90Q-E23C-A26C-Fc: disulfide stabilized variant CD80-Fc fusion protein (K89Q, D90Q, E23C, A26C)”, the “% aggregation” value ([1]; Table 11, 54.9° C.) is reported as 3.2%, the “% aggregation” value ([1]; Table 11, 59.1° C.) is reported as 22.8% and the “% aggregation” value ([1]; Table 11, 64° C.) is reported as 36.2%. The “% aggregation” value ([1]; Table 12, 40° C.) was 0.6%, the “% aggregation” value ([1]; Table 12, 45.3° C.) was 2.9% and the “% aggregation” value ([1]; Table 12, 49.4° C.) was 0.5%. The “% aggregation” value ([1]; Table 12, 54.9° C.) was 6.7%, the “% aggregation” value ([1]; Table 12, 59.1° C.) was 55.9% and the “% aggregation” value ([1]; Table 12, 64° C.) was 68.8%. For the same substance, the Viscosity ([2]; 107.0 mg/ml) was 9.878 cP, the Viscosity ([2]; 148.0 mg/ml) was 30.16 cP and the IFNγ ([3]; Table 20, D222, 1 μg/ml) was 7.3. It also gave an IFNγ ([3]; Table 20, D222, 10 μg/ml) of 4.3, an IL-2 ([3]; Table 20, D222, 10 μg/ml) of 6.7 and an IFNγ ([3]; Table 20, D281, 1 μg/ml) of 3.0. It also gave an IL-2 ([3]; Table 20, D281, 1 μg/ml) of 2.7, an IFNγ ([3]; Table 20, D281, 10 μg/ml) of 3.7 and an IL-2 ([3]; Table 20, D281, 10 μg/ml) of 5.7. The IFNγ ([3]; Table 20, D462, 1 μg/ml) was 7.0, the IL-2 ([3]; Table 20, D462, 1 μg/ml) was 2.0 and the IFNγ ([3]; Table 20, D462, 10 μg/ml) was 7.3. It also gave an IL-2 ([3]; Table 20, D462, 10 μg/ml) of 3.0, an IFNγ ([3]; Table 20, D547, 1 μg/ml) of 4.3 and an IL-2 ([3]; Table 20, D547, 1 μg/ml) of 13.3. It also gave an IFNγ ([3]; Table 20, D547, 10 μg/ml) of 3.0, an IL-2 ([3]; Table 21, D132, 1.9 μg/ml) of 0.0 and an IL-2 ([3]; Table 21, D132, 5.6 μg/ml) of 0.0. It also gave an IL-2 ([3]; Table 21, D132, 16.7 μg/ml) of 0.3, an IL-2 ([3]; Table 21, D149, 1.9 μg/ml) of 0.0 and an IL-2 ([3]; Table 21, D149, 5.6 μg/ml) of 0.0. It also gave an IL-2 ([3]; Table 21, D149, 16.7 μg/ml) of 0.0, an IL-2 ([3]; Table 21, D149, 50 μg/ml) of 0.0 and an IL-2 ([3]; Table 21, D379, 1.9 μg/ml) of 29.0. The IL-2 ([3]; Table 21, D379, 5.6 μg/ml) was 2.3, the IL-2 ([3]; Table 21, D379, 16.7 μg/ml) was 0.0 and the IL-2 ([3]; Table 21, D379, 50 μg/ml) was 0.0. It also gave an IL-2 ([3]; Table 21, D399, 1.9 μg/ml) of 0.0, an IL-2 ([3]; Table 21, D399, 5.6 μg/ml) of 2.0 and an IL-2 ([3]; Table 21, D399, 16.7 μg/ml) of 0.0. The IL-2 ([3]; Table 21, D399, 50 μg/ml) was 0.0, the IL-2 ([3]; Table 21, D417, 1.9 μg/ml) was 3.0 and the IL-2 ([3]; Table 21, D417, 5.6 μg/ml) was 0.0. For the same substance, the IL-2 ([3]; Table 21, D417, 16.7 μg/ml) was 0.3, the IL-2 ([3]; Table 21, D417, 50 μg/ml) was 0.0 and the IL-2 ([3]; Table 21, D518, 1.9 μg/ml) was 0.0. The IL-2 ([3]; Table 21, D518, 5.6 μg/ml) was 2.0, the IL-2 ([3]; Table 21, D518, 16.7 μg/ml) was 1.7 and the IL-2 ([3]; Table 21, D518, 50 μg/ml) was 2.7. The IFNγ ([3]; Table 22, D132, 1.9 μg/ml) was 0.0, the IFNγ ([3]; Table 22, D132, 5.6 μg/ml) was 78.0 and the IFNγ ([3]; Table 22, D132, 16.7 μg/ml) was 0.0. It also gave an IFNγ ([3]; Table 22, D132, 50 μg/ml) of 0.0, an IFNγ ([3]; Table 22, D149, 1.9 μg/ml) of 0.0 and an IFNγ ([3]; Table 22, D149, 5.6 μg/ml) of 0.0. It also gave an IFNγ ([3]; Table 22, D149, 16.7 μg/ml) of 0.0, an IFNγ ([3]; Table 22, D149, 50 μg/ml) of 41.3 and an IFNγ ([3]; Table 22, D379, 1.9 μg/ml) of 0.0. The IFNγ ([3]; Table 22, D379, 5.6 μg/ml) was 0.0, the IFNγ ([3]; Table 22, D379, 16.7 μg/ml) was 0.0 and the IFNγ ([3]; Table 22, D379, 50 μg/ml) was 0.0. It also gave an IFNγ ([3]; Table 22, D399, 1.9 μg/ml) of 0.0, an IFNγ ([3]; Table 22, D399, 5.6 μg/ml) of 0.0 and an IFNγ ([3]; Table 22, D399, 16.7 μg/ml) of 0.0. The IFNγ ([3]; Table 22, D399, 50 μg/ml) was 4.3, the IFNγ ([3]; Table 22, D417, 1.9 μg/ml) was 0.0 and the IFNγ ([3]; Table 22, D417, 5.6 μg/ml) was 0.0. It also gave an IFNγ ([3]; Table 22, D417, 16.7 μg/ml) of 0.0, an IFNγ ([3]; Table 22, D417, 50 μg/ml) of 0.0 and an IFNγ ([3]; Table 22, D518, 1.9 μg/ml) of 0.0. It also gave an IFNγ ([3]; Table 22, D518, 5.6 μg/ml) of 0.0, an IFNγ ([3]; Table 22, D518, 16.7 μg/ml) of 20.7 and an IFNγ ([3]; Table 22, D518, 50 μg/ml) of 0.0. The “Number of tumor regressions” value ([4]; 0.1 mg/kg) was 5/10, the “Day 10 tumor volume” value ([4]; 0.1 mg/kg IV) was 289.9 mm^3 and the “% tumor growth inhibition” value ([4]; 0.1 mg/kg) was 75.80%. The “Number of tumor regressions” value ([4]; 1 mg/kg) was 6/10, the “Day 10 tumor volume” value ([4]; 1 mg/kg IV) was 305.3 mm^3 and the “% tumor growth inhibition” value ([4]; 1 mg/kg) was 74.51%. For the same substance, the “# IFNγ-producing spots (tumor-reactive T cells in spleen)” value ([4]; 1 mg/kg) was 547.375.

With “CD80-K89Q-D90Q-Fc: variant CD80 ECD (K89Q, D90Q) fused to human IgG1 Fc” the “% aggregation” value ([1]; Table 11, 40° C.) was 69.9%, the “% aggregation” value ([1]; Table 11, 45.3° C.) was 77.7% and the “% aggregation” value ([1]; Table 11, 49.4° C.) was 78.0%. The Viscosity ([2]; 93.5 mg/ml) was 32.8 cP, the Viscosity ([2]; 120.6 mg/ml) was 115.8 cP and the IFNγ ([3]; Table 20, D222, 1 μg/ml) was 3.7. The IL-2 ([3]; Table 20, D222, 1 μg/ml) was 4.3, the IFNγ ([3]; Table 20, D222, 10 μg/ml) was 4.0 and the IL-2 ([3]; Table 20, D222, 10 μg/ml) was 4.0. The IFNγ ([3]; Table 20, D281, 1 μg/ml) was 3.3, the IL-2 ([3]; Table 20, D281, 1 μg/ml) was 2.3 and the IFNγ ([3]; Table 20, D281, 10 μg/ml) was 6.7. The IFNγ ([3]; Table 20, D462, 1 μg/ml) was 7.0, the IFNγ ([3]; Table 20, D462, 10 μg/ml) was 15.0 and the IL-2 ([3]; Table 20, D462, 10 μg/ml) was 1.7. It also gave an IFNγ ([3]; Table 20, D547, 1 μg/ml) of 4.0, an IL-2 ([3]; Table 20, D547, 1 μg/ml) of 6.3 and an IFNγ ([3]; Table 20, D547, 10 μg/ml) of 8.0. The IL-2 ([3]; Table 20, D547, 10 μg/ml) was 3.3, the “Number of tumor-free mice” value ([5]; 0.3 mg/kg) was 2/10 and the “Day 18 tumor volume” value ([5]; 0.3 mg/kg IV, Day 0 and 3) was 743.2 ± 159.5 mm^3. The “% tumor growth inhibition” value ([5]; 0.3 mg/kg) was 37.4%, the “Number of tumor-free mice” value ([5]; 1 mg/kg) was 3/10 and the “Day 18 tumor volume” value ([5]; 1 mg/kg IV, Day 0 and 3) was 192.6 ± 89.3 mm^3. The “% tumor growth inhibition” value ([5]; 1 mg/kg) was 86.1%, the “Number of tumor-free mice” value ([5]; 3 mg/kg) was 8/10 and the “Day 18 tumor volume” value ([5]; 3 mg/kg IV, Day 0, 3 and 6) was 43.2 ± 21.8 mm^3. For the same substance, the “% tumor growth inhibition” value ([5]; 3 mg/kg) was 99.8%, the “# IFNγ-producing spots (splenic tumor-reactive T cells)” value ([5]; 3 mg/kg, spleen Day 9, average of n = 4 mice) was 152.17 and the “CD8^+ T cell infiltrates (% CD45)” value ([5]; Renca, 3 mg/kg, ~1 week after first dose, n=4) was 36.7 % CD45. For the same substance, the “Number of tumor regressions” value ([4]; 0.1 mg/kg) was 1/10, the “Day 10 tumor volume” value ([4]; 0.1 mg/kg IV) was 857.6 mm^3 and the “% tumor growth inhibition” value ([4]; 0.1 mg/kg) was 28.41%. The “Number of tumor regressions” value ([4]; 1 mg/kg) was 5/10, the “Day 10 tumor volume” value ([4]; 1 mg/kg IV) was 299.0 mm^3 and the “% tumor growth inhibition” value ([4]; 1 mg/kg) was 75.04%. The “# IFNγ-producing spots (tumor-reactive T cells in spleen)” value ([4]; 1 mg/kg) was 569.5.
